± gives the uncertainty stated by the source.
assay: abundance fitness (aPCA) (normalised: wild type 0, dead -1); higher = more abundant; growth selection in yeast, the domain comes from the species named; conditions: Homo sapiens

Substance	abundance fitness
SAFB-like transcription modulator R26G, Q9NWH9	-0.19 ± 0.08
BAG family molecular chaperone regulator 3 Q33F, O95817	-0.183 ± 0.27
BAG family molecular chaperone regulator 3 E57K, O95817	-0.11 ± 0.24
BAG family molecular chaperone regulator 3 F38R, O95817	-0.149 ± 0.1
SAFB-like transcription modulator E57C, Q9NWH9	-0.192 ± 0.096
SAFB-like transcription modulator E59L, Q9NWH9	-0.794 ± 0.041
SAFB-like transcription modulator N38F, Q9NWH9	-0.24 ± 0.083
BAG family molecular chaperone regulator 3 R19Q, O95817	-0.333 ± 0.084
BAG family molecular chaperone regulator 3 P21Q, O95817	0.192 ± 0.063
SAFB-like transcription modulator T42W, Q9NWH9	-0.315 ± 0.095
BAG family molecular chaperone regulator 3 G25K, O95817	-0.492 ± 0.23
SAFB-like transcription modulator I28P, Q9NWH9	0.193 ± 0.13
BAG family molecular chaperone regulator 3 P37G, O95817	0.024 ± 0.084
SAFB-like transcription modulator G60D, Q9NWH9	-0.171 ± 0.062
BAG family molecular chaperone regulator 3 G25M, O95817	-0.652 ± 0.075
SAFB-like transcription modulator D40V, Q9NWH9	-0.417 ± 0.072
BAG family molecular chaperone regulator 3 N50Y, O95817	0.235 ± 0.16
BAG family molecular chaperone regulator 3 D18M, O95817	-0.406 ± 0.26
BAG family molecular chaperone regulator 3 P37V, O95817	0.358 ± 0.079
BAG family molecular chaperone regulator 3 V12L, O95817	0.208 ± 0.066
SAFB-like transcription modulator L34C, Q9NWH9	-0.496 ± 0.1
SAFB-like transcription modulator R37P, Q9NWH9	-0.658 ± 0.094
SAFB-like transcription modulator I49G, Q9NWH9	-0.406 ± 0.049

Substance	abundance fitness
SAFB-like transcription modulator L30V, Q9NWH9	-0.295 ± 0.05
BAG family molecular chaperone regulator 3 V54A, O95817	-0.719 ± 0.26
SAFB-like transcription modulator D64R, Q9NWH9	-0.23 ± 0.032
BAG family molecular chaperone regulator 3 S44G, O95817	-0.483 ± 0.11
SAFB-like transcription modulator R26T, Q9NWH9	-0.302 ± 0.12
BAG family molecular chaperone regulator 3 A13E, O95817	-0.47 ± 0.28
BAG family molecular chaperone regulator 3 P23H, O95817	0.173 ± 0.23
BAG family molecular chaperone regulator 3 V12S, O95817	-0.14 ± 0.15
SAFB-like transcription modulator I56P, Q9NWH9	-0.457 ± 0.05
SAFB-like transcription modulator K31A, Q9NWH9	-0.352 ± 0.049
BAG family molecular chaperone regulator 3 S44K, O95817	-0.7 ± 0.43
SAFB-like transcription modulator G60Y, Q9NWH9	-0.591 ± 0.07
BAG family molecular chaperone regulator 3 V40A, O95817	-0.556 ± 0.17
BAG family molecular chaperone regulator 3 P37T, O95817	0.898 ± 0.11
SAFB-like transcription modulator K45A, Q9NWH9	-0.224 ± 0.068
BAG family molecular chaperone regulator 3 E57I, O95817	-0.566 ± 0.36
SAFB-like transcription modulator I66F, Q9NWH9	-0.396 ± 0.15
SAFB-like transcription modulator D64H, Q9NWH9	-0.124 ± 0.058
BAG family molecular chaperone regulator 3 R53V, O95817	-0.715 ± 0.22
SAFB-like transcription modulator L52E, Q9NWH9	-0.456 ± 0.15
SAFB-like transcription modulator D40E, Q9NWH9	-0.318 ± 0.086
SAFB-like transcription modulator K21P, Q9NWH9	-0.312 ± 0.057
SAFB-like transcription modulator D40G, Q9NWH9	-0.277 ± 0.069

Substance	abundance fitness
SAFB-like transcription modulator R37W, Q9NWH9	-1.26 ± 0.071
SAFB-like transcription modulator L52Q, Q9NWH9	-0.927 ± 0.45
BAG family molecular chaperone regulator 3 A13S, O95817	-0.321 ± 0.2
BAG family molecular chaperone regulator 3 G17C, O95817	0.731 ± 0.11
BAG family molecular chaperone regulator 3 G35N, O95817	1.26 ± 0.22
SAFB-like transcription modulator G60C, Q9NWH9	-0.258 ± 0.036
BAG family molecular chaperone regulator 3 N16T, O95817	0.666 ± 0.11
BAG family molecular chaperone regulator 3 I30H, O95817	-0.114 ± 0.074
BAG family molecular chaperone regulator 3 D20F, O95817	-0.09 ± 0.32
BAG family molecular chaperone regulator 3 N50L, O95817	-0.181 ± 0.17
SAFB-like transcription modulator K45F, Q9NWH9	-0.55 ± 0.037
BAG family molecular chaperone regulator 3 D31M, O95817	-0.182 ± 0.15
BAG family molecular chaperone regulator 3 G58M, O95817	0.512 ± 0.17
SAFB-like transcription modulator R26K, Q9NWH9	-0.389 ± 0.14
BAG family molecular chaperone regulator 3 R53D, O95817	-0.822 ± 0.49
BAG family molecular chaperone regulator 3 P23C, O95817	-0.932 ± 0.19
BAG family molecular chaperone regulator 3 G15Y, O95817	0.874 ± 0.075
SAFB-like transcription modulator E59P, Q9NWH9	-0.768 ± 0.05
SAFB-like transcription modulator I49S, Q9NWH9	-0.168 ± 0.05
BAG family molecular chaperone regulator 3 F39A, O95817	-0.89 ± 0.18
BAG family molecular chaperone regulator 3 T47H, O95817	-0.736 ± 0.3
SAFB-like transcription modulator E33G, Q9NWH9	-0.974 ± 0.086
BAG family molecular chaperone regulator 3 R45C, O95817	-0.165 ± 0.17

— the Human Domainome abundance scans (Beltran et al. 2025)
